From the DeepSol protein solubility set

Assay: soluble on expression in E. coli; label from the status in PepcDB or PDB records

Sequence	soluble on expression in E. coli
MGSDKIHHHHHHMDQSWVNQAIAKIEADYQRSADTHLIKLELPMLPCIDIYLKDESTHPTGSLKHRLARSLFLYALCNGWITQDTPIIESSSGSTAVSEAYFARLLGLPFIAVMPASTAKKKIQQIEFYGGRCHFVEHSSQIYAESQRLAEELSGHYMDQFTYAERATDWRGNNNIANSIFEQMQREPHPVPSWIVMSPGTGGTSATIGRYIRYQCAKTKLCVVDPENSVFYDYYHSGDASISCAGASRIEGIGRPRAEPSFIPGVVDHMVKIDDSASIATIYWLETLIGRKAGPSTGTNLYGALQLASEMHANGQTGSIVTLLCDSGDRYLDTYYDKQWVDEHIGDITEYQAKLAAFNESGHLE	not soluble
MGSDKIHHHHHHMKELAIASRDLVSPDGLAGYLRFVNAQPLLRPEEERDLARRLRDHGDVDAAKDLVLSHLRFVVRVARGYRGYGLQEADLIQEGNIGLMKAVKRYDPDHGVRLVSFAVHWVKAEIHEFILRNWRIVKVATTKAQRKLFFNLRSSRSHTGWMSGEESAAMADDLGVTQAQVLEMEGRMSGYDYSLNLEPDEEREGGRAPDLADPTGSPIEQLVERDWDQQQHRALHTALSALPQRDRYIIENRWLSDDPKTLQVLGDELGVSAERVRQLEKSSMGKLRQQMLTTAAVA	not soluble
MGSDKIHHHHHHMPSVFQLQALCAAVEKPSLRQAAEALCKTQPALTHALKQLESQLGLPLFNRDGYRLVLTGSGERIYQLALKTLESHAELEQLAQHLARGDEDRVVLTVEASFDLTPILSALESVQAEFSQTEIVIQQEYLTGAVERVQQGHANLAITPLAPALSPGTRLDTQPLSQGQMLNVAAPRLLARYPSLCSILELRKEYQILVQDSGSGTLGLKLGVQSAQRHWYVNSFATKLSLIEQGMGWGRLPEWMLTEALAAGRLQLLELADFPARQRFDYHLVRRSASVPGPVATRLWQRLGGGAL	not soluble
MDLRTANVTRYILPLREGGSLPALAEADDEFKYVVKFRGAGHGTKALIAELIGGEIARTLGFRVPEIIFLNLDEAFGRTEADEEIQDLLQWSRGLNIGLHFLSGALTFDPVVHQVDGKTASQIVWMDAFLTNVDRTIKNTNMLMWHKELWLIDHGASLYFQHSWTNWQKQALTPFVQIKDHVLLPFADQLKETDMAFRQLLTSDKIWEIVNTVPDDWLNWTEGQETPQDLRDIYIQFLEERIKHSELFVNEAQHARKALI	not soluble
MGSDKIHHHHHHMYHDVSYLLSRLINGPLSLRQIYFASSNGPVPDLAYQVDFPRLEIVLEGEFVDTGAGATLVPGDVLYVPAGGWNFPQWQAPATTFSVLFGKQQLGFSVVQWDGKQYQNLAKQHVARRGPRIGSFLLQTLNEMQMQPQEQQTARLIVASLLSHCRDLLGSQIQTASRSQALFEAIRDYIDERYASALTRESVAQAFYISPNYLSHLFQKTGAIGFNEYLNHTRLEHAKTLLKGYDLKVKEVAHACGFVDSNYFCRLFRKNTERSPSEYRRQYHSQLTEKPTTPE	not soluble
SLEGGDTLEGSMAQLKKGLESGTVLIQFEQLYRKKPGLAITFAKLPQNLDKNRYKDVLPYDTTRVLLQGNEDYINASYVNMEIPAANLVNKYIATQGPLPHTCAQFWQVVWDQKLSLIVMLTTLTERGRTKCHQYWPDPPDVMNHGGFHIQCQSEDCTIAYVSREMLVTNTQTGEEHTVTHLQYVAWPDHGVPDDSSDFLEFVNYVRSLRVDSEPLLVHCSAGIGRTGVLVTMETAMCLTERNLPIYPLDIVRKMRDQRAMMVQTSSQYKFVCEAILRVYEEGLVQMLDPS	soluble
MAKFTVGQDPVKGLTELKAYMEEQISKIKKATSEQEIDQLLVEVLNEYDDKMGSLSKIYKGGNEQVEQLKIDVRKLYEPLRDQFSYNHPQTLVGEFQTKLEEQHKRAEEEKRKLEKQREEQLKLEKQLEEEKQKLAKQSEVEEKPKLENQQEENITQALQKVDGIIQELTLKIDRVDQHQYKKAHDTANTLLQSLIAARDEYERDLRANEFSQELAGRKFKLACQDAVKIAKPVLEKDLGWGDYLKNLLKCLGNAVITVFTFGYQQGFFAYARPDSAKAVEKAEEDLGLRQAASSPK	not soluble
MGSDKIHHHHHHMEKQVATSIFESLSSGLRLDVFRLLVKKGPDGMVAGEIANALDVPPANLSFHLKALSQARLVTVEQEGRFQRYRADIPLMLDLIAYLTDECCTGSPAKCVEKVAASNCAKELLPPPVTHSNESDNMNILFLCTGNSCRSILAEAVFNHLAPTGWKAMSAGSQPTGTVHPRSLALLAREGIDTNGLHSKSWDNLPQVPDVVITVCSNAAGETCPAYLGAVLRAHWGVDDPAHATGTEAEIEAAFTAAYRILRRRIEAFLALPLVELARDRTRLKAELDRIGALSA	not soluble
TQEKRSYMEKLSDENGIISALAFDQRGALKRLMAQYQTQEPTIAQMEELKVLVAEELTPYASSMLLDPEYGLPAAKHLDKNAGLLLAYEKTGYDTTSTKRLPDCLVEWSAKRLKKQGADAVKFLLYYDVDGDEEVNQQKQAYIERIGSECKAEDIPFFLEILAYDETITDAASVEYAKVKPHKVLDAMKVFSDERFGIDVLKVEVPVNMKYVEGFGDGPIVHTQDQAANFFKQQDQATPLPYIYLSAGVSAKLFQDTLVFAKESGANFNGVLCGRATWAGSVKDYIEKGEAAARQWLRTEGFKNIDELNKVLKATATSWKE	not soluble
MGSDKIHHHHHHMENKYLVSIIVPVHNTADYLHKCIESLRSQTLQQIEIILVDNLSVDGSSEICDEYAKIDKRIKVLHLSIAGLSIARNAGMRIASAPYIGFVDSDDYVEPAMFEKMLDAMVQSDAEIAYCNFLLEYEFKPNESPYRNSGDIVIRDPKNVLQDMMMEKVSCSACTKLYKSGFLTSLQFPEGKNYEDRLVMYEWVALCKKVVWVDSPFYHYVERQTSICHTMSPMNLYHYFLAEYARMRFMEKYSLFEEEDLFKIRTRLIGTCLTIFKEILLKVNLREFKEPVKDMRQKMKEIAALPEDTYELKYRRRVRKIAYHWHLYYLTHFLFKKGGDS	not soluble
MAHHHHHHMAQRVAIPDDCVYEGYGNLYRGDAEVTPPQPIVGARGGNGVLYGTIDSEEALRQLRTALRVDVHPQLKALVQEKKLDEVASSPASLPWLVCRPNALPLRTLPSSFSSGTRYEIERMKSQCRFLRDWLMCHETPEERVEAREFLRTAQRLLQKESVEELLGRTENLLQQLENWPAVVEKARPHIAEWNNDKSLTELREFVGDVLGTDEVCARLSKLTCRFSLLAPLLEEAAFRSAALEEMEQWSSEATVSSLRSLRASIHDWELRVAKDQQNVLDSSQLLLERIAAVRNKRRESAGDLT	soluble
MRLLYVIKKENPMDQMPNCPKCQSEYVYHDSINFVCPDCGNEWDNNEIQESDDDQLIVKDSNGNLLAEGDNVLLIKDLKLKGSSEVLKKGTKFKNIRLVNGDHNVDCGKIMLKSEFLKKALEHHHHHH	soluble
MNYMPGTASLIEDIDKKHLVLLRDGRTLIGILRSIDQFANLVLHQTVERIHVGKKFGDIPRGIFVVRGENVVLLGEVDLDKECDQILQRVSIEEILEEQRTEQQAKQESERLKLQAVKERGLSIPKADTLDDF	soluble
MGSDKIHHHHHHMRENKVVYGLIGYGGMGRWHTEILSNVPEAVIGGIYDIKEEKREEAKAKGFSVYETEEAMLADSDIDVVLIATPNDCHKPIAIRAMHAGKNVISEKPVTLSSADLLEMEKVAKETGKLFTVHQNRRWDDDFLIIKKLVEEQKLGHVFRIESRVHGSRGIPGDWRKEKVHGGGMVLDWGVHLLDQILYMYGDRKIETVYASLTNITNQEVDDGFTAILTFEGGTEVLVEVGTNNYISLPRWYVLGKDGTAVIRDWQLTGEIIRKTGKTEETVIPVKTAAGLTKTMAPRREDTIVKEDLPKVSGDIADFHRNVVAVIRDGAEPEIKLFQVMRVMKLMEAIFQAAETKQVIEFQDQV	not soluble
MIVTLLGTGDSPGTPILNCHCRTCEDARRKGWERKRFSVMVQNNGKTVLIDTSPDLRRQLLDCGVEKVDAVIWTHCHFDHFGGFGEFYRVQNNVKVYSTPQIHEDIGHFMKFMSYKPVEVEAFENFTIAGMDFTLLPVNHPPVSAVGVKVEWKGYKVVVSGDTNVRIPEATLREMQNPDLLIVEALAPTGRFRKHMNAKEALELAKRLNAGKVVLTHLGHFFPPHHLAIKSYPVGEDYQSFSFGEGRLDEFFGDLEHHHHHH	not soluble
MEVQFKNTRKGYYLNSERIELHKGDVVAVEANPGHDIGTVTLTGKLVKLQMRKHRYNTNNGEPFKIYRIAKQGDLDKYCEAKAREYDTMIQSRQISAELNLDMKIGDVEYQGDGNKAIFYYIADERVDFRQLIRVLAETFHIRVEMKQIGARQEAGRIGGIGPCGRQLCCSAWKMNFVSVNTSAARYQDLALNPQKLTGLCAKLKCCLNYEVDAYVEARKKMPSPEIVLETKESAYHYFKADVFRREVSYSTVPNAPVNLTTISARRAFEVISQNKQGFKPVSLEYDDKKQSSGHELSDILTDNSLTRFDDALSRRRRRNGNGNRDFSDREKAGEPHRTPDSIQPTPRVRSSSRMPSREKSPRPEGGDRRENMRERSRGDARFARPYTNEGGSERMEGARRVVGSGRRPPRQSTPRQEDRQGERKEE	not soluble
LKYMYKIDDDKKYILYCPTWRGNQRKEVTQINLKDLLKYLPENYEIIVKLHPNESHLRTRYNQIDNRIHCYFNELVDIQELYILSECMITDYSSTIFDYIHLNKPVFILQEDEQQYKQSVGFYFDLFEVGDFLKASLNERMLAKQICSTDYINYSKVVHRLMKQDSSKSSEKLMAEILGEPEYPSSSNCKQQIS	not soluble
MEGCVSNIMICNLAYSGKLDELKERILADKSLATRTDQDSRTALHWACSAGHTEIVEFLLQLGVPVNDKDDAGWSPLHIAASAGRDEIVKALLVKGAHVNAVNQNGCTPLHYAASKNRHEIAVMLLEGGANPDAKDHYDATAMHRAAAKGNLKMVHILLFYKASTNIQDTEGNTPLHLACDEERVEEAKFLVTQGASIYIENKEEKTPLQVAKGGLGLILKRLAEGEEASM	soluble
MSLNWKQLISAKRFGMEEFHEERQENRSEFQRDYDRLIFSAPFRRLQNKTQVFPLPGSIFVHNRLTHSLEVSCVGRSLGNDVAKAILERQPELESSFLPEIGSIVSAACLAHDLGNPPFGHSGERAISTFFSEGKGQRLQEKQPDGEQLSPMEWEDLTHFEGNANAFRILTHQFEGRRRGGFVLTYSTLASIVKYPFSSSLAGKKSKFGFFVSEEESYRKIATELGLIQLSEQPLKYARHPLVYLVEAADDICYQMMDIEDAHKLKIITTDETKELLMAFFSEDRQSRLRSTFQIVNDINEQIAYLRSSVIGLLVRECTRVFLEHEQEILAGTFEGALIKHIAEGPAAAYNHCAEISLKRIYRSQDVLDIELAGFRIISTLLELMVDAVTLPGKEKAYSELLTNRVSDQYNIKSPVLYERIQAVLDYISGMTDVFALDLYRKINGNSLPAEGHHHHHH	soluble
EAAPAPAGKGKILAVTACPTGIAHTFMAADALKEKAKELGVEIKVETNGSSGIKHKLTAQEIEDAPAIIVAADKQVEMERFKGKRVLQVPVTAGIRRPQELIEKAMNQDAPIYQGSGGGSA	not soluble
MGSDKIHHHHHHMFLILLEVIVTSCPLLSSSFARLNPIPLDDAVIRTFMFIILHCKDKSIANPGAIIYKPFYPKFRVMERNELVNFVEGILKRIGFRTMKLEFRGGCFDLVATRQLLLLFIKALANIDKFSEEQAEDLKKLAKLFKASPLLVGLRSKNAELEDGVVYERFGIYAITPGTLYSMFAEGEPPLIIAERGGFYVRIDGKKLKALREEHGYSITELAGILGISRKSLQRYEKGESVVSLEVALRLEEVFDEPLVKPIDVLRARLKDVTLTSEPDNILEKEVFEKLRKLGMSVVKIKTAPFNAITKEEEDDIELLTGIDERKTGRTLKRAELVSQMAEVVGSDGVFVVKKARMEVVRNVPILPKKLLEEIKDADELLELIRDLKFKS	not soluble
